Bridge positions count the residues as written; N and C are the ends. Ends that are not written are not given here. COCH2 = acetyl group that carries the bridge
B1: cyclic peptide SEQ ID NO: 49 (peptide)
peptide: SCQGNWISNTQFRYFIAYK(COCH2)T
modifications: thioether 2-19 (inferred); not fully specified (residue 1); printed as s-(C)-QGNWISNTQFRYFIAY-(K(acetyl))-T
B2: cyclic peptide SEQ ID NO: 402 (peptide)
peptide: PCEVYNYWYPTQWFFFTQFK(COCH2)K
modifications: thioether 2-20; not fully specified; printed as P-(C)-EVYNYWYPTQWFFFTQF-(K(acetyl))-K

Molecular target: T1, Recombinant Human FGFR2 alpha (IIIc) Fc Chimera Protein, CF (R&D systems, 712-FR-050) (human, UniProt P21802 22-377)
T1 construct: bought; not shown: Fc part of the chimera
T1 sequence (P21802 22-377, change not shown): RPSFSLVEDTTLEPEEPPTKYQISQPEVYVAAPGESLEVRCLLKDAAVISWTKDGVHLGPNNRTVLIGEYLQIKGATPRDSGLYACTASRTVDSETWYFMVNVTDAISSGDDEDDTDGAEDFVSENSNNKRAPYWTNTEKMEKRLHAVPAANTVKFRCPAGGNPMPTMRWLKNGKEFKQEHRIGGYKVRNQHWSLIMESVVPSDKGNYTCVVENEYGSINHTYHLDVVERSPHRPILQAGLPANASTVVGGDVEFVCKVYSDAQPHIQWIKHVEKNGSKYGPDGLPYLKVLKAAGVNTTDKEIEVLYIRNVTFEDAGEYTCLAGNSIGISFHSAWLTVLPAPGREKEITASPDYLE
Assay: ELISA on plate-bound FGFR2-Fc
In short: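 Plate-immobilized FGFR2 alpha (IIIc)-Fc (5 ng/well) incubated with peptide 3 h at room temperature, then anti-Myc antibody 2 h and chemiluminescent ELISA substrate. Signal corrected by subtracting FGFR-free wells; binding affinity scored into categories from the dose-response.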

Binder | ELISA luminescence signal at 10 nmol/L peptide, relative to SEQ ID NO: 47 (=1) [ratio]
QCPQEFINPVQWRYFQHYK(COCH2)N (thioether 2-19) [cyclic peptide SEQ ID NO: 99] | 0.1 to 0.5
QCPQHFINPVQWRYFQHYK(COCH2)N (thioether 2-19) [cyclic peptide SEQ ID NO: 100] | 0.1 to 0.5
QCPQNFINPVQIRYFQHYK(COCH2)N (thioether 2-19) [cyclic peptide SEQ ID NO: 101] | 0.1 to 0.5
QCPQNFINPVQVRYFQHYK(COCH2)N (thioether 2-19) [cyclic peptide SEQ ID NO: 102] | 0.1 to 0.5
QCPQNFINPVQFRYFQHYK(COCH2)N (thioether 2-19) [cyclic peptide SEQ ID NO: 103] | 0.5 to 0.7
QCPQNFINPVQYRYFQHYK(COCH2)N (thioether 2-19) [cyclic peptide SEQ ID NO: 104] | 0.5 to 0.7
QCPQNFINPVQSRYFQHYK(COCH2)N (thioether 2-19) [cyclic peptide SEQ ID NO: 105] | 0.1 to 0.5
QCPQNFINPVQHRYFQHYK(COCH2)N (thioether 2-19) [cyclic peptide SEQ ID NO: 106] | ≥ 0.7
QK(COCH2)PQNFINPVQWRYFQHYCN (thioether 2-19) [cyclic peptide SEQ ID NO: 399] | 0.1 to 0.5
GCYWNEVQYYYLQQYK(COCH2)Q (thioether 2-16 (inferred)) [cyclic peptide SEQ ID NO: 48] | ≥ 0.7
B1 | ≥ 0.7
ACGQNFYHPVQFHYFIAYK(COCH2)Q (thioether 2-19 (inferred)) [cyclic peptide SEQ ID NO: 50] | ≥ 0.7
VCHSNFLSAVQYAYFYQYK(COCH2)H (thioether 2-19 (inferred)) [cyclic peptide SEQ ID NO: 51] | ≥ 0.7
VCNENNWSRSQYHFFLQYK(COCH2)Y (thioether 2-19 (inferred)) [cyclic peptide SEQ ID NO: 52] | 0.1 to 0.5
QCYYLYWYLYK(COCH2)I (thioether 2-11) [cyclic peptide SEQ ID NO: 361] | 0.1 to 0.5
LCYLYQYLYTTK(COCH2)Y (thioether 2-12) [cyclic peptide SEQ ID NO: 362] | 0.1 to 0.5
LCYLYQYIYTAK(COCH2)F (thioether 2-12) [cyclic peptide SEQ ID NO: 363] | 0.1 to 0.5
QCLQYLYQYLFK(COCH2)I (thioether 2-12) [cyclic peptide SEQ ID NO: 364] | 0.1 to 0.5
LCYLYQYLYQAK(COCH2)F (thioether 2-12) [cyclic peptide SEQ ID NO: 365] | 0.1 to 0.5
DCQQYYLYLYLWK(COCH2)I (thioether 2-13) [cyclic peptide SEQ ID NO: 366] | 0.1 to 0.5
HCQLEYLYTYVLK(COCH2)I (thioether 2-13) [cyclic peptide SEQ ID NO: 367] | 0.1 to 0.5
QCLIQDLYAYIFK(COCH2)L (thioether 2-13) [cyclic peptide SEQ ID NO: 368] | 0.1 to 0.5
DCLQFLYLYLYQK(COCH2)T (thioether 2-13) [cyclic peptide SEQ ID NO: 369] | 0.1 to 0.5
DCQLYYLYQYVLTK(COCH2)V (thioether 2-14) [cyclic peptide SEQ ID NO: 370] | 0.1 to 0.5

Binder | ELISA luminescence signal at 10 nmol/L peptide, relative to SEQ ID NO: 47 (=1) [ratio]
DCQLWYLYQYLIVK(COCH2)A (thioether 2-14) [cyclic peptide SEQ ID NO: 371] | 0.1 to 0.5
QCEQLKYLYQYVLKL (not fully specified; thioether ring (C)-(K(acetyl))) [cyclic peptide SEQ ID NO: 372] | 0.1 to 0.5
QCYNYQYIYQYIYK(COCH2)I (thioether 2-14) [cyclic peptide SEQ ID NO: 373] | 0.1 to 0.5
QCLQDLYRYLYLLK(COCH2)A (thioether 2-14) [cyclic peptide SEQ ID NO: 374] | 0.1 to 0.5
DCLQFIYQYLYTVK(COCH2)I (thioether 2-14) [cyclic peptide SEQ ID NO: 375] | 0.1 to 0.5
QCIQDLYLYLYFLK(COCH2)T (thioether 2-14) [cyclic peptide SEQ ID NO: 376] | 0.1 to 0.5
HCLHYLYQYLYTVK(COCH2)Y (thioether 2-14) [cyclic peptide SEQ ID NO: 377] | 0.1 to 0.5
QCPRQLYYLYLYLSK(COCH2)I (thioether 2-15) [cyclic peptide SEQ ID NO: 378] | 0.1 to 0.5
NCQLYYTYLYLHTLK(COCH2)F (thioether 2-15) [cyclic peptide SEQ ID NO: 379] | 0.1 to 0.5
YCPPQLVYLYQYLYK(COCH2)L (thioether 2-15) [cyclic peptide SEQ ID NO: 380] | 0.1 to 0.5
VCQEYYLYQYVYELK(COCH2)Y (thioether 2-15) [cyclic peptide SEQ ID NO: 381] | 0.1 to 0.5
PCDRQLYYLYQYIHK(COCH2)T (thioether 2-15) [cyclic peptide SEQ ID NO: 382] | 0.1 to 0.5
KCQNFINPVQWRYFQHYKN (not fully specified; thioether ring (C)-(K(acetyl))) [cyclic peptide SEQ ID NO: 68] | ≥ 0.7
QCQLYYLYQYAYALK(COCH2)V (thioether 2-15) [cyclic peptide SEQ ID NO: 383] | 0.1 to 0.5
QCQLYYLYQYTIAIK(COCH2)T (thioether 2-15) [cyclic peptide SEQ ID NO: 384] | 0.1 to 0.5
QCAYYHLYQYLHQLK(COCH2)V (thioether 2-15) [cyclic peptide SEQ ID NO: 385] | 0.5 to 0.7
RCHHNFHHARQHGFFYHYK(COCH2)R (thioether 2-19) [cyclic peptide SEQ ID NO: 388] | 0.1 to 0.5
RCHHNFHHARQWGFFHHYK(COCH2)R (thioether 2-19) [cyclic peptide SEQ ID NO: 386] | 0.5 to 0.7
RCHHNFHHARQHRFFHHYK(COCH2)R (thioether 2-19) [cyclic peptide SEQ ID NO: 387] | 0.1 to 0.5
RCHHNFHHARQHGFFWHYK(COCH2)R (thioether 2-19) [cyclic peptide SEQ ID NO: 389] | 0.1 to 0.5
KCPQNFINPVQWRYFQHYAKN (thioether ring (C)-(K(acetyl))) [cyclic peptide SEQ ID NO: 69] | 0.1 to 0.5
VCQQDNYFYPQQWFFFVHYK(COCH2)H (thioether 2-20) [cyclic peptide SEQ ID NO: 400] | ≥ 0.7
QCQFLNYVNHVQWHYFWVFK(COCH2)S (thioether 2-20) [cyclic peptide SEQ ID NO: 401] | 0.1 to 0.5
B2 | ≥ 0.7

Source: US20260008815A1, “CYCLIC PEPTIDE OR SALT THEREOF, AND USES THEREOF” (FUJIFILM Corporation, priority 2023, published 2026)
